Measurements published in US7064106B2, “Gene and use thereof” (Takeda Chemical Industries, Ltd., priority 1999, dated 2006).

Columns and labels:
IRAP-His = biological target: T1, IRAP-His (Rattus norvegicus, UniProt P97629); test: Biochemical binding test of human MD36 (EIA plate, anti-Penta-His detection); conditions: IRAP-His 1.0 μg/ml and anti-Penta-His antibody both added to human MD36-coated wells
T1 construct: to construct plasmid pET21-IRAP (1–109); made in house
T1 sequence (P97629 1-109): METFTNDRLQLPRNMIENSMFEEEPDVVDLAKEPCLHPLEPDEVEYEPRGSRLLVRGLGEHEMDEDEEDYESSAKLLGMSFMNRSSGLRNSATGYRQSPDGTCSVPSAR
From the text: The C terminal part (partial peptide encoded by the partial base sequence of 2995–3674 from the 5′ end in SEQ ID NO:2) of SEQ ID NO:1 (full-length cDNA of MD36) was used as human MD36. This DNA fragment was inserted into pGEX expression vector (Amersham Pharmacia) to construct expression plasmid pGEX-MD36N4 capable of expressing the human MD36 partial protein in the form fused to GST (glutathione S-transferase) protein (GST-MD36N4 protein) under control of tac promoter. However, the protease recognition site in these junctions was removed by applying PCR. Using pGEX-MD36N4, E. coli BL21 was transformed and the transformants were cultured in LB medium in a conventional manner while inducing expression by IPTG. After culture, the cells collected were disrupted by sonication followed by centrifugation of the cell homogenate. As a result, most of the GST-MD36N4 protein were present in the insoluble fraction. […]
Protein-protein binding test was carried out by the procedure shown below. […] After the wells were again rinsed 3 times with TBS-T, the IRAP-His protein remained in the wells was quantitatively assayed using anti-Penta-His antibody (Qiagen, Inc.). […] IRAP-His (1.0 μg/ml) or anti-Penta-His antibody (diluted to 2000 fold) and both were added to the GST-MD364N-coated or uncoated wells, and after washing with TBS-T, the amount of His-Tag remained in the wells was quantified. […]

IRAP (55–82) = biological target: T2, IRAP (55–82) (Rattus norvegicus, UniProt P97629); test: Yeast two-hybrid quantification assay of β-galactosidase activity (CPRG); format: cell-based; conditions: bait IRAP (55–82); prey MD36 cDNA base numbers 2995–3674; S. cerevisiae Y190; CPRG substrate
T2 construct: expressed in transfected cells; host or cells: Saccharomyces cerevisiae Y190
T2 sequence (P97629 55-82 limits assumed): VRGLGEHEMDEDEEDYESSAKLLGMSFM
Protocol: In order to verify the binding of human MD36 to IRAP quantitatively, the β-galactosidase activity was assayed using CPRG (chlorophenol red-β-D-galactopyranoside) as substrate.
Yeast bearing both bait and prey sought to detect the interactions therebetween was subjected to liquid culture. After the cells were recovered, the cell walls were disrupted by freezing/thawing with liquid nitrogen. After CRPG was added to a suspension of the disrupted cells, absorbance of these samples at 578 nm was measured in terms of the β-galactosidase activity. In the unit of β-galactosidase, the enzyme activity that one yeast cell is capable of hydrolyzing 1 μmol of CPRG into chlorophenol red and D-galactoside was made 1 unit. IRAP (55–82) was used as the bait sequence and as the prey sequence, the sequence (679 bp corresponding to the base numbers 2995–3674 in SEQ ID NO:3) directly isolated from human MD36 cDNA sequence by the yeast two-hybrid method was used. In addition, vector pGBT9 that expresses bait sequence-unfused GAL4-BD was used as a negative control. Using plasmids having these sequences, S. Cerevisiae Y190 was transformed and the β-galactosidase activity of the reconstructed yeast transformants was assayed. […] On the other hand, the binding activity was scarcely noted with the protein bearing GAL4-BD alone but no bait sequence (FIG. 19). […]

B1: MD36: human skeletal muscle-derived IRAP binding protein, SEQ ID NO:1; C-terminal part (bases 2995–3674) used in binding tests (protein, listed as Homo sapiens)
chain: MAGGEDRGDGEPVSVVTVRVQYLEDTDPFACANFPEPRRAPTCSLDGALPLGAQIPAVHRLLGAPLKLEDCALQVSPSGYYLDTELSLEEQREMLEGFYEEISKGRKPTLILRTQLSVRVNAILEKLYSSSGPELRRSLFSLKQIFQEDKDLVPEFVHSEGLSCLIRVGAAADHNYQSYILRALGQLMLFVDGMLGVVAHSDTIQWLYTLCASLSRLVVKTALKLLLVFVEYSENNAPLFIRAVNSVASTTGAPPWANLVSILEEKNGADPELLVYTVTLINKTLAALPDQDSFYDVTDALEQQGMEALVQRHLGTAGTDVDLRTQLVLYENALKLEDGDIEEAPGAGGRRERRKPSSEEGKRSRRSLEGGGCPARAPEPGPTGPASPVGPTSSTGPALLTGPASSPVGPPSGLQASVNLFPTISVAPSADTSSERSIYKLHQTASVWAPESPPVPQSPPGQARLEARFLENVAAAETEKQVALAQGRAETLAGAMPNEAGGHPDARQLWDSPETAPAARTPQSPAPCVLLRAQRSLAPEPKEPLIPASPKAEPIWELPTRAPRLSIGDLDFSDLGEDEDQDMLNVESVEAGKDIPAPSPPLPLLSGVPPPPPLPPPPPIKGPFPPPPPLPLAAPLPHSVPDSSALPTKRKTVKLFWRELKLAGGHGVSASRFGPCATLWASLDPVSVDTARLEHLFESRAKEVLPSKKAGEGRRTMTTVLDPKRSNAINIGLTTLPPVHVIKAALLNFDEFAVSKDGIEKLLTMMPTEEERQKIEEAQLANPDIPLGPAENFLMTLASIGGLAARLQLWAFKLDYDSMEREIAEPLFDLKVGMEQLVQNATFRCILATLLAVGNFLNGSQSSGFELSYLEKVSEVKDTVRRQSLLHHLCSLVLQTRPESSDLYSEIPALTRCAKVDFEQLTENLGQLERRSRAAEESLRSLAKHELAPALRARLTHFLDQCARRVAMLRIVHRRVCNRFHAFLLYLGYTPQAAREVRIMQFCHTLREFALEYRTCRERVLQQQQKQATYRERNKTRGRMITETEKFSGVAGEAPSNPSVPVAVSSGPGRGDADSHASMKSLLTSRPEDTTHNRRSRGMVQSSSPIMPTVGPSTASPEEPPGSSLPSDTSDEIMDLLVQSVTKSSPRALAARERKRSRGNRKSLRRTLKSGLGDDLVQALGLSKGPGLEV
B1 was tested. Which “amount of His-Tag remained in the wells” value (IRAP-His) did it give?
The value was “markedly detected”.

What about the β-galactosidase activity (IRAP (55–82)) of the same molecule?
The β-galactosidase activity was “about 70 units”.
